Test results reported in the Human Domainome abundance scans (Beltran et al. 2025).
± gives the uncertainty stated by the source.

B1: Zinc finger homeobox protein 3, residues 2643 to 2698; numbered along this chain, Q15911 (parent)
chain: RLRTTITPEQLEILYQKYLLDSNPTRKMLDHIAHEVGLKKRVVQVWFQNTRARERK

Variants of: B1
Assay: abundance fitness (aPCA) (normalised: wild type 0, dead -1); higher = more abundant; growth selection in yeast, the domain comes from the species named
Conditions: Homo sapiens

Point of comparison: RLRTTITPEQLEGLYQKYLLDSNPTRKMLDHIAHEVGLKKRVVQVWFQNTRARERK, abundance fitness -0.24 ± 0.077. Against it:
- RLRTTITPEQLEILYQKYLYDSNPTRKMLDHIAHEVGLKKRVVQVWFQNTRARERK — within error, -0.466 ± 0.19
- RLRTTITPEQLEILYQKYLKDSNPTRKMLDHIAHEVGLKKRVVQVWFQNTRARERK — within error, -0.147 ± 0.12
- RLRPTITPEQLEILYQKYLLDSNPTRKMLDHIAHEVGLKKRVVQVWFQNTRARERK — higher, 0.149 ± 0.13
- RLRCTITPEQLEILYQKYLLDSNPTRKMLDHIAHEVGLKKRVVQVWFQNTRARERK — lower, -0.56 ± 0.19
- RLRDTITPEQLEILYQKYLLDSNPTRKMLDHIAHEVGLKKRVVQVWFQNTRARERK — higher, 0.154 ± 0.19
- RLRTTITPEQLEILYQKYLLDSNPTRKMLDHIAHEVGLKKRVVQVWFQNTRAGERK — higher, 0.126 ± 0.071
- RLRTTITPEQLEILYQKYLLDSNPTRKMLDHIEHEVGLKKRVVQVWFQNTRARERK — lower, -0.759 ± 0.18
- RLRTTNTPEQLEILYQKYLLDSNPTRKMLDHIAHEVGLKKRVVQVWFQNTRARERK — lower, -0.702 ± 0.091
- RLRTTHTPEQLEILYQKYLLDSNPTRKMLDHIAHEVGLKKRVVQVWFQNTRARERK — within error, -0.332 ± 0.09
- RLRTTITPEQLEILYQKYLLDSNPVRKMLDHIAHEVGLKKRVVQVWFQNTRARERK — within error, -0.349 ± 0.082
- RLRTTITPEQLEILYQKYLLDSNPTRKMLDHIAHEVGLKKRVVLVWFQNTRARERK — within error, -0.347 ± 0.082
- RLRTTITPEQLEILYQKYLLDSNPTRKMLDHIAHEVGLKKRVVKVWFQNTRARERK — within error, -0.236 ± 0.12
- RLRTTITPEQLEILYQKYLLDSNPTRKMLDHIAHEVGLKKRVVQVWFQNTSARERK — higher, 0.024 ± 0.093
- RLRTTITPEQLEILYQKYLLDSNPTRKMLDHIAHEVGLKKRVVQVWFQNTLARERK — higher, 0.056 ± 0.1
- RLRTTITPEQLECLYQKYLLDSNPTRKMLDHIAHEVGLKKRVVQVWFQNTRARERK — higher, -0.058 ± 0.094
- RLRTTITPEQLEWLYQKYLLDSNPTRKMLDHIAHEVGLKKRVVQVWFQNTRARERK — within error, -0.172 ± 0.091
- RLRTTITPEQLEHLYQKYLLDSNPTRKMLDHIAHEVGLKKRVVQVWFQNTRARERK — higher, 0.067 ± 0.18
- RLRTTITPEQLEILYQKYLLDSNPTRKMLDHIAHEVGLKKRVVQVWFQVTRARERK — within error, -0.229 ± 0.093
- RLRTTITPEQLEILYQKYLLDSNPTRKMLDHIAEEVGLKKRVVQVWFQNTRARERK — higher, 0.099 ± 0.16
- RLRTTITPEQLEILYQKYLLDSNPTRKMLDHIAKEVGLKKRVVQVWFQNTRARERK — higher, 0.213 ± 0.16
- RLRTTITPEQLEILYQKYLLDSNPTRKMLDHIAPEVGLKKRVVQVWFQNTRARERK — lower, -0.739 ± 0.12
- RLRTTIEPEQLEILYQKYLLDSNPTRKMLDHIAHEVGLKKRVVQVWFQNTRARERK — higher, 0.087 ± 0.096
- RLRTTITPEQLEILYQKYLLDSNPTRKMLDSIAHEVGLKKRVVQVWFQNTRARERK — higher, 0.215 ± 0.086
- RLRTTITPEQLEILYQKYLLDSNPTRKMLDIIAHEVGLKKRVVQVWFQNTRARERK — higher, 0.009 ± 0.16
- RLRTTITPEQLEILYQKYLLDSNPTRKMLDAIAHEVGLKKRVVQVWFQNTRARERK — higher, 0.109 ± 0.083
- RLRTTITPEQLEILYQKYLLDSNPTRKMLLHIAHEVGLKKRVVQVWFQNTRARERK — lower, -0.435 ± 0.099
- RLRTTITPEQLEILYQKYLLDSNPTRKMLDHIAHEVGLKKRVVQVWFQNTRARERT — within error, 0.01 ± 0.23
- RLRTTITPEQLEILYQKYLLDSNPTRKMLDHIAHEVGLKKRVVQVWFQNTRARERH — within error, -0.17 ± 0.4
- RLRTTITPEQLEILYQKYLLDSNPTRKMLDHIAHEVGLKKRVVQVWFQNTRARERV — within error, -0.073 ± 0.18
- RLRTTITPEQLEILYQKYLLDSNPTRTMLDHIAHEVGLKKRVVQVWFQNTRARERK — higher, 0.036 ± 0.093
- RLRTTITPEQLEILYQKYLLDSNPTRAMLDHIAHEVGLKKRVVQVWFQNTRARERK — higher, 0.018 ± 0.08
- RLRTTITPEQLEILYQKYLLDSNPTRDMLDHIAHEVGLKKRVVQVWFQNTRARERK — higher, 0.229 ± 0.15
- RLRTTITPEQLEILCQKYLLDSNPTRKMLDHIAHEVGLKKRVVQVWFQNTRARERK — within error, -0.368 ± 0.13
- RLRTTITPEQLEILYQKYLLDTNPTRKMLDHIAHEVGLKKRVVQVWFQNTRARERK — within error, -0.315 ± 0.13
- RLRTTITPEQLEILYQKYLLDSNPTRKMLDHIAHEVGLKKRVVQVWTQNTRARERK — lower, -0.997 ± 0.19
- RLRTTITPEQLEILYQKYLLDSNPTRKMLDHIAHEVGLKKRVVQVWDQNTRARERK — lower, -0.833 ± 0.23
- RLRTTITPEQLEILYQKYLLKSNPTRKMLDHIAHEVGLKKRVVQVWFQNTRARERK — lower, -0.924 ± 0.2
- RLRTTITPEQLEILYQKYLLQSNPTRKMLDHIAHEVGLKKRVVQVWFQNTRARERK — within error, -0.255 ± 0.17
- RLRTTITPEQLEILYQKYLLDSNPTRKMLDHIAHEVGLKKRVVQVWFNNTRARERK — within error, -0.21 ± 0.23
- RLRTTITPEQLEILYQKYLLDSNPTRKMLDHIAHEVGLKKRVVQVWFGNTRARERK — within error, -0.164 ± 0.075
- RLRTTITPEQLEILYQKYLLDSNPTRKMLDHIAHEVGLKKRVVQVWFLNTRARERK — within error, -0.268 ± 0.11
- RLRTTITPEQLEILYQKYLLDSNPTRKMLDHIAHEVGLKKRVVQVWFQNTRAREHK — within error, 0.001 ± 0.25
- RLRTTITPEQLEILYQKYLLDSNPTRKMLDHIAHEVGLKKRVVQVWFQNTRARETK — higher, 0.479 ± 0.14
- RLRTTITPEQLEILYQKYLLDSNPTRKMLDHIAHEVGLKKRRVQVWFQNTRARERK — lower, -0.44 ± 0.091
- RLRTTITPEQLEILYQKYLLDSNPTRKMLDHIAHEVGLKKRTVQVWFQNTRARERK — higher, 0.037 ± 0.11
- RLRTTITPEQLEILYQKYLLDSNPTRKMLDHIAHEVGLKKRLVQVWFQNTRARERK — higher, -0.03 ± 0.087
